Reference: doi:10.1101/2022.09.20.508729, “Loss of the first β-strand of human prion protein generates an aggregation-competent partially “open” form” (bioRxiv, 2022)

Molecular target: the molecule itself
Assay: thioflavin T fluorescence of fibril formation

B1: PrP^23 (residues 23-231 of human PrP) (natural protein)
chain: not shown
notes: also called full-length WT PrP
binding result: binds
